One assay deals with T1, Parkin (endogenous) (human, UniProt O60260 1-465).
T1 construct: Endogenous protein immunoprecipitated from cell lysates; also called Endogenous Parkin
The assay is described as follows: not told (data not shown).

A further assay concerns the target T2, Cdh1 (human, UniProt Q9UM11 1-496, limits assumed).
T2 construct: Protein in cell lysate, co-immunoprecipitation
The assay is described as follows: IP-immunoblot of transfected Parkin domain constructs, mitotic cells (FIG. 10A). (In general: Immunoblotting shows a protein as a band on a membrane.)

A further assay concerns the target T3, Cdc20 (human, UniProt Q12834 1-499).
T3 construct: Protein in cell lysate, co-immunoprecipitation
The assay is described as follows: IP-immunoblot of transfected cells with or without nocodazole (FIG. 9K).

T3 sequence (Q12834 whole entry): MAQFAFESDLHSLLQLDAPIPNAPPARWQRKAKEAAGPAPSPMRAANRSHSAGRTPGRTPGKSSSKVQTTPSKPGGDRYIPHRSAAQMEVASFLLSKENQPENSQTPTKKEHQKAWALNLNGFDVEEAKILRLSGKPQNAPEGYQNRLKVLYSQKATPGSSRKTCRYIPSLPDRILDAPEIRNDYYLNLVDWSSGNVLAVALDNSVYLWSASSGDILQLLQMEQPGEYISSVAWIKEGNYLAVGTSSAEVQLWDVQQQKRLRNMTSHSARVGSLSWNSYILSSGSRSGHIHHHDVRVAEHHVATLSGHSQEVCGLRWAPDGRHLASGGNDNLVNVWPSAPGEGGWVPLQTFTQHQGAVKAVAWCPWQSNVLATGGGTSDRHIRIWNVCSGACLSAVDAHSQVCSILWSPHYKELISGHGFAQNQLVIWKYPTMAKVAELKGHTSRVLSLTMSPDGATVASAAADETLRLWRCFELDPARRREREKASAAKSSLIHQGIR
T2 sequence (Q9UM11 whole entry): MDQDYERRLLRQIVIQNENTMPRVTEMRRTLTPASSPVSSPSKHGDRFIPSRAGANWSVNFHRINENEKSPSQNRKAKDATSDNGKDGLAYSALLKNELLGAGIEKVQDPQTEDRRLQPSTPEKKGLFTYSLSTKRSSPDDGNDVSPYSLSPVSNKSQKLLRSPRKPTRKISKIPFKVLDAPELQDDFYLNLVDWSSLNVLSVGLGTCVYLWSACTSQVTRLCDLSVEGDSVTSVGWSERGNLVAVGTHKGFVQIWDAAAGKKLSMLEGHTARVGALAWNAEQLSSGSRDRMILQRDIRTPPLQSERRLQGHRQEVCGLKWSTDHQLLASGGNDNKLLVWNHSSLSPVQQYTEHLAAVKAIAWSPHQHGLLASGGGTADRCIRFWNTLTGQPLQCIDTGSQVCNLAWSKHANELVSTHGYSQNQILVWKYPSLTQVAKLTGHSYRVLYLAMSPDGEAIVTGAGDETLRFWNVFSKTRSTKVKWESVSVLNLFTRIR
Experimental for Cdc20: (H) Cells were transfected with the indicated plasmids, and then treated with nocodazole. Cell lysates were then blotted with the indicated antibodies. […] (J and K) Cells were treated with chemical (J) or transfected with indicated constructs (K).
Text for Cdh1: Cells were transfected with the indicated plasmids, and mitotic cells were collected for immunoprecipitation (IP)-immunoblot analysis (right).

B1: UbcH10 (enzyme, UniProt O00762 2-179, looked up)
chain: ASQNRDPAATSVAAARKGAEPSGGAARGPVGKRLQQELMTLMMSGDKGISAFPESDNLFKWVGTIHGAAGTVYEDLRYKLSLEFPSGYPYNAPTVKFLTPCYHPNVDTQGNICLDILKEKWSALYDVRTILLSIQSLLGEPNIDSPLNTHAAELWKNPTAFKKYLQETYSKQVTSQEP
notes: also called the E2 for APC/C in mitosis
Take B1: the binding result in the assay with Parkin (endogenous) is recorded as “no binding”.

B2: Parkin RING1 domain (other, UniProt O60260 238-293, looked up, not shown: small tags and cut ends)
chain: CITCTDVRSPVLVFQCNSRHVICLDCFHLYCVTRLNDRQFVHDPQLGYSLPCVAGC
notes: domain: RING1
As for B2, the binding result with Cdh1 was “no binding”.

B3: Parkin S378A (enzyme, UniProt O60260 1-465, looked up, not shown: large carriers)
chain: MIVFVRFNSSHGFPVEVDSDTSIFQLKEVVAKRQGVPADQLRVIFAGKELRNDWTVQNCDLDQQSIVHIVQRPWRKGQEMNATGGDDPRNAAGGCEREPQSLTRVDLSSSVLPGDSVGLAVILHTDSRKDSPPAGSPAGRSIYNSFYVYCKGPCQRVQPGKLRVQCSTCRQATLTLTQGPSCWDDVLIPNRMSGECQSPHCPGTSAEFFFKCGAHPTSDKETSVALHLIATNSRNITCITCTDVRSPVLVFQCNSRHVICLDCFHLYCVTRLNDRQFVHDPQLGYSLPCVAGCPNSLIKELHHFRILGEEQYNRYQQYGAEECVLQMGGVLCPRPGCGAGLLPEPDQRKVTCEGGNGLGCGFAFCRECKEAYHEGECAAVFEASGTTTQAYRVDERAAEQARWEAASKETIKKTTKPCPRCHVPVEKNGGCMHMKCPQPQCRLEWCWNCGCEWNRVCMGDHWFDV
notes: Transfected construct, IP-immunoblot with or without nocodazole
As to B3, in the assay with Cdc20, the binding result is given as “no binding”.

The values above are taken from patent US20180344736A1 (ROCHESTER, published 2018).
